The values that follow come from paper PMC7105897.

For assay [1], the target named is N2 NA of the 1957 H2N2 pandemic isolate A/Japan/305/1957 (influenza A virus A/Japan/305/1957 (H2N2)). In words: crystal structure.
Assay [2] has as its target N9 NA from the H7N9 epidemic isolate A/Hunan/02650/2016 (influenza A virus A/Hunan/02650/2016 (H7N9)). Description: crystal structure.
In assay [3] the target is N2 NA of the seasonal influenza virus strain A/Hong Kong/4801/2014 (H3N2) (influenza A virus A/Hong Kong/4801/2014 (H3N2)).

For the substance “N2 NA of the 1957 H2N2 pandemic isolate A/Japan/305/1957 (enzyme)”, the stoichiometry N in assay [1] amounted to 4.

On to “N9 NA from the H7N9 epidemic isolate A/Hunan/02650/2016 (enzyme)”, for which, in assay [2], the stoichiometry N worked out at 4.

Substance antigen-binding fragment (Fab) of 1G01 gave an IC50 of inhibition of NA activity of H3N2 A/Hong Kong/4801/2014 in ELLA (Fab) in assay [3] of 7.62 nM.
